For the assay, the target named is Sudan virus (SUDV) glycoprotein GP (Sudan ebolavirus, strain  for …, UniProt Q7T9D9). Put plainly: SPR. The following applies: both partners purified.

B1:  (antibody, V domains shown)
VH: EVQLVESGGGLVKPGGSLRLSCAASGFTFSNAWMSWVRQAPGKGLEWVGRIKSKTDGGTIDYAAPVKGRFTISRDDSKNTVYLQMTSLKTEDTAVYYCTTYTEDMRYFDWLLRGGETFDYWGQGTLVTVSS
VL: DIRLTQSPSSLSASVGDRVTITCRASQYISTYLNWYQQKPGKAPKLLIYAAYNLQSGVPSRFSGSRFGTDFSLTISSLQPEDFATYHCQQSYSTPGRYTFGQGTKVEIK
notes: also called H27Q/S52Y/G66R-LC variant
In general, Kd refers to a measure of binding affinity in units of concentration. The molecule B1 returned a dissociation constant (Kd) of 0.349 nM.

B2:  (antibody, V domains shown)
VH: EVQLVESGGGLVKPGGSLRLSCAASGFTFSNAWMSWVRQAPGKGLEWVGRIKSKTDGGTIDYAAPVKGRFTISRDDSKNTVYLQMTSLKTEDTAVYYCTTYTEDMRYFDWLLRGGETFDYWGQGTLVTVSS
VL: DIRLTQSPSSLSASVGDRVTITCRASHYISTYLNWYQQKPGKAPKLLIYYAYNRQSGVPSRFSGSGFGTDFSLTISSLQPEDFATYHCQQSYSTPGRYTFGQGTKVEIK
notes: also called A50Y/S52Y/L54R-LC variant
In the case of B2, the dissociation constant Kd is 0.248 nM.

The values above are taken from publication PMC13006735 (Research, 2026).
